The values below come from patent US20220324977A1 (BEIJING SINOGENE BIOTECHNOLOGY, published 2022).

Assay [1] addresses T1, canine PD-1 protein amino acids 25-168 with His tag (canine, UniProt A0A090BAM7 25-168).
T1 construct: Expressed in Expi293F cells; used as immunogen and as antigen in ELISA and Octet; also called PD-1 His
Briefly: kinetics, PD-1 His 1.1 nM.

The target of assay [2] is T1, canine PD-1 protein amino acids 25-168 …. As to the kind of experiment: kinetics, PD-1 His 4.0 nM.
Assay [3] has the same target. Briefly: kinetics, PD-1 His 12.4 nM.
Assay [4] shares this target. Briefly: kinetics, PD-1 His 37.3 nM.
The target is the same in assay [5]. As to the kind of experiment: kinetics, PD-1 His 111.3 nM.
Assay [6] has the same target. Briefly: kinetics, PD-1 His 333.3 nM.
Assay [7] shares this target. As to the kind of experiment: kinetics, PD-1 His 1000.0 nM.
The target is the same in assay [8]. Briefly: kinetics, global fit over PD-1 His 1.1-1000 nM.
Assay [9] shares this target. Briefly: kinetics, global fit over the PD-1 His series 1.1-1000.0 nM.
For assay [10], the target named is T2, PD1 on the surface of T cells (canine PBMC stimulated with ConA) (canine, UniProt A0A090BAM7 25-288).
T2 construct: also called canine PD-1
T2 sequence (A0A090BAM7 entry or part of it limits assumed): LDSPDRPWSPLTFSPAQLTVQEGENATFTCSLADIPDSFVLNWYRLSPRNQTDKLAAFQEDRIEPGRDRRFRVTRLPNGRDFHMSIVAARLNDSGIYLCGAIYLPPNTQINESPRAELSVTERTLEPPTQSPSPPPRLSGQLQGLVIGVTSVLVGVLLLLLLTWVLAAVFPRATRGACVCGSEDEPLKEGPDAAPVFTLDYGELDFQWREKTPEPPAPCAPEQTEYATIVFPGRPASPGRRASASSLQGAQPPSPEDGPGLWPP
As to the kind of experiment: flow cytometry, ConA-stimulated canine PBMC, CD3-FITC and PE-labeled anti-canine IgG. As for the experimental part:
(§1) The cells were stimulated by 0.5 μg/mL ConA for 3 days, and collected. PBMC was incubated with canine-anti-CD3-FITC and caninized monoclonal antibodies C1, C3 and C11 respectively. Then the cells were incubated again with PE-labeled canine-IgG antibody. […] Moreover, the results also indicate that the caninized monoclonal antibodies C1, C3 and C11 have potential blocking effect on the PD1/PD-L1 signaling pathway, and thus have protective effect on the function of T cells (see FIG. 14).
In general terms: In flow cytometry, cells or beads pass a laser one at a time.

Assay [11] deals with T2, PD1 on the surface of T cells (canine …). Briefly: flow cytometry on ConA-stimulated canine PBMC, stained with anti-CD3-FITC and the caninized antibody, detected with PE-labeled anti-canine IgG; quadrant plot FITC against PE; no unstained or isotype control shown. As for the experimental part:
as §1

Assay [12] addresses T1, canine PD-1 protein amino acids 25-168 …. As to the kind of experiment: ELISA, PD-1 His 100 ng/mL, clone supernatant.
Assay [13] has the same target. As to the kind of experiment: Octet BLI, supernatant captured by anti-mouse IgG Fc, PD-1 His 20 nM. As to the method:
Octet BMIA was used to determine the affinity of the supernatant of the PD-1A clone culture to PD-1 His. Anti-mouse IgG Fc was added to each clone supernatant to capture competence factors.

Assay [14] addresses T3, PD1-Fc (canine, UniProt A0A090BAM7 25-168).
T3 construct: also called Only Ag (PD1 Fc)
As to the kind of experiment: Octet BLI competition, competitor PD-L1 Fc on AHC sensor, against PD1 Fc only. As to the method:
(§2) D-L1 Fc ([…]) was loaded on an AHC sensor for cross-linking assay. Epitope analysis was used to determine the binding of antibodies loaded on the sensor to recombinant antibodies preincubated with PD1-Fc. The binding (response) degrees observed were compared to that of antigen only under the same conditions. If the total response of an antibody was higher than that of antigen only, the antibody would be matched. If the response of an antibody was lower than 80% of that of antigen, the antibody would be blocked with each other.
(In general: BLI is a label-free optical method that tracks binding on a fibre tip over time.)

The target of assay [15] is T3, PD1-Fc. Briefly: Octet BLI competition, competitor PD-L1 Fc on AHC sensor, PD1 Fc 50 nM preincubated with supernatant 1/2. As to the method:
as §2

Numbering of substitutions follows the chain as printed. A value given as a limit tells only on which side of the number the result lay.

What is called Kd is a measure of binding affinity in units of concentration. The koff is a measure of how fast the partners let go of each other. For orientation: kon means a measure of how fast the partners come together. Low values mean slow association, high ones fast association.

T1 sequence (A0A090BAM7 entry or part of it limits assumed): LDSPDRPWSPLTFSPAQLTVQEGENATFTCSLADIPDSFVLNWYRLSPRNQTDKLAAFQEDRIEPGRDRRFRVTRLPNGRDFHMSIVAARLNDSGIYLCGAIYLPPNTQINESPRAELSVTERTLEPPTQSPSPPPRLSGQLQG

B1: caninized monoclonal antibody C1 (antibody, V domains shown)
VH: EVQLQQSGAELVKPGASVKLSCTASGFNIKDTYMHWVKQRPEQGLEWIGRIDPAIDNTKYDPKFQGKATITADTSSNTAYLQLSSLTSEDTAVYYCASGFYTMDYWGQGTSVTVSS
VL: QIVLTQSPAIMSASPGEKVTMTCSASSSVTYMYWFQQKPGSSPRLWIYDTSNLVSGVPARFSGSRSGTSYSLTISSMEAEDAATYYCQQYSGHPSSFGSGTKLEIKR
notes: Variable domains as for M1; also called C1(35.38); 35.38
Turning to B1, the “Response (nm)” value in assay [1] is -0.031 nm; in assay [2], 0.005 nm; in assay [3], 0.001 nm; in assay [4] it was 0.008 nm; in assay [5] it was 0.016 nm; in assay [6] it was -0.004 nm. Besides, the “Response (nm)” value in assay [7] worked out at 0.001 nm. In addition, the Kd in assay [2] is 18.4 nM; in assay [3] it was 2.46 nM; in [4], 2.65 nM; in assay [5] it was 2.06 nM; in [8] it was 1.59 nM; in assay [9], 1.59 nM. Besides, the koff was 1.27 s⁻¹ in assay [2]; 0.0198 s⁻¹ in [3]; 0.00953 s⁻¹ in assay [4]; 0.000886 s⁻¹ in assay [5]; 0.401 s⁻¹ in assay [8]; 0.401 s⁻¹ in assay [9]. Also, the kon in assay [2] amounted to 6.93e+07 M⁻¹ s⁻¹; in assay [3], 8.05e+06 M⁻¹ s⁻¹; in assay [4], 3.6e+06 M⁻¹ s⁻¹; in [5], 430000 M⁻¹ s⁻¹; in assay [8], 2.51e+08 M⁻¹ s⁻¹; in assay [9], 2.51e+08 M⁻¹ s⁻¹. In assay [10], the “PD1 positive cells in T cells” value came out at 94.6%. Also, the “% of cells in quadrant Q2 (Comp-FITC-A positive, Comp-PE-A positive)” value (“% of cells in quadrant Q2” below) in assay [11] worked out at 57.9%.

B2: caninized monoclonal antibody C3 (antibody, V domains shown)
VH: B1 VH with Q3R, M34L, V37L, Q39E, D56G, K59R, G66V, T91S, S98R, T102G
VL: B1 VL with T30S, Y33F, F35Y, H93Y, S95Y, S96T, S99G
notes: Variable domains as for M3; also called C3(36.39); 36.39
On to B2, for which the “Response (nm)” value in assay [1] stood at 0.002 nm; in assay [2], 0.009 nm; in [3], 0.005 nm; in [4] it was 0.017 nm; in assay [5], 0.026 nm; in assay [6], 0.01 nm. Further, the “Response (nm)” value in [7] was 0.007 nm. Moreover, the Kd in [4], in [5], in [6], in assay [7], in [8] and in assay [9] was less than 0.001 nM throughout. In addition, the koff in [4], in [5], in assay [6], in assay [7], in [8] and in assay [9] was less than 1e-07 s⁻¹ in each case. Moreover, the kon turned out to be 40500 M⁻¹ s⁻¹ in assay [4]; 14700 M⁻¹ s⁻¹ in assay [5]; 1760 M⁻¹ s⁻¹ in assay [6]; 330 M⁻¹ s⁻¹ in assay [7]; 626 M⁻¹ s⁻¹ in [8]; 626 M⁻¹ s⁻¹ in [9]. Also, the “PD1 positive cells in T cells” value in assay [10] worked out at 96.2%. In assay [11], the “% of cells in quadrant Q2” value came to 53.1%.

B3: PD-1 A-M1 (antibody, mouse IgG1, V domains shown)
VH: B1 VH
VL: QIVLTQSPAIMSASPGEKVTMTCSASSSVTYMYWFQQKPGSSPRLWIYDTSNLVSGVPARFSGSRSGTSYSLTISSMEAEDAATYYCQQYSGHPSSFGSGTKLEIK
notes: Mouse IgG1 kappa, tested as hybridoma supernatant; also called 2C08
Take B3: the “O.D. determined by ELISA” value in [12] is 2.65. Moreover, in assay [13], the affinity, expressed as Kd, was 144 nM; the “Response (nm)” value is 0.049 nm; the koff was found to be 0.00044 s⁻¹; the kon is 3060 M⁻¹ s⁻¹. For the same molecule, the “% response” value in the assay with PD1-Fc [14] was -21.9%. In addition, the “Response (nm)” value with PD1-Fc [15] was -0.009 nm.

B4: caninized monoclonal antibody C11 (antibody, V domains shown)
VH: B1 VH with L11V, D56G, T58P, K67R, T102A, Y105C
VL: B1 VL with V29I, Y33F, F35Y, R65K, S75T, H93Y, S96T
notes: Variable domains as for M11; also called C11(37.40); 37.40
As to B4, the “Response (nm)” value in assay [1] was -0.003 nm; in assay [2], 0.004 nm; in assay [3] it was 0.008 nm; in assay [4] it was 0.015 nm; in assay [5], 0.025 nm; in assay [6], 0.012 nm. Besides, the “Response (nm)” value in assay [7] worked out at 0.009 nm. The Kd in assay [3], in assay [4], in [5], in assay [6], in assay [7] and in assay [8] was less than 0.001 nM in each case. In addition, the Kd in assay [9] was less than 0.001 nM. Besides, the koff in assay [3], in [4], in assay [5], in [6], in assay [7] and in [8] was less than 1e-07 s⁻¹ in each case. For the same molecule, the off-rate (koff) in assay [9] was less than 1e-07 s⁻¹. The kon in assay [3] was determined as 50100 M⁻¹ s⁻¹; in assay [4] it was 67600 M⁻¹ s⁻¹; in assay [5] it was 23800 M⁻¹ s⁻¹; in [6], 947 M⁻¹ s⁻¹; in [7] it was 1470 M⁻¹ s⁻¹; in assay [8], 1190 M⁻¹ s⁻¹. The molecule also showed a kon in assay [9] of 1190 M⁻¹ s⁻¹. Moreover, the “PD1 positive cells in T cells” value in assay [10] is 96.7%. Besides, in assay [11], the “% of cells in quadrant Q2” value came to 62.6%.
